Changes are numbered by the printed parent chain. Numbers in names are those of the source. Where “and” joins values, the source holds several entries; their conditions need not be identical. Equal values may be shown once.
B1: I3_(27-68) (I3 PP1 interaction domain) (domain or fragment, human, UniProt O60927 27-68, looked up)
chain: SLTIKLRKRKPEKKVEWTSDTVDNEHMGRRSSKCCCIYEKPR
notes: PPP1R11), human, residues 27-68; also called WT I3_(27-68); source: E. coli BL21 (DE3), purified (Ni-NTA, TEV, heat 95 °C, SEC); not shown: His6, N-terminal, cleaved; MBP, N-terminal, cleaved
B2: SCS: I3_(27-68) C60S/C62S (domain or fragment, human, UniProt O60927 27-68, looked up)
chain: B1 chain with C34S, C36S
notes: PPP1R11), human, residues 27-68, C60S/C62S; also called I3_27-68_SCS; source: E. coli BL21 (DE3), purified (Ni-NTA, TEV cleavage, heat, SEC); not shown: His6, N-terminal, cleaved; MBP, N-terminal, cleaved
B3: SSC: I3_(27-68) C60S/C61S (domain or fragment, human, UniProt O60927 27-68, looked up)
chain: B1 chain with C34S, C35S
notes: PPP1R11), human, residues 27-68; source: E. coli BL21 (DE3), purified (Ni-NTA, TEV, heat 95 °C, SEC); not shown: His6, N-terminal, cleaved; MBP, N-terminal, cleaved
B4: IY: I3_(27-68) I63A/Y64A (domain or fragment, human, UniProt O60927 27-68, looked up)
chain: B1 chain with I37A, Y38A
notes: PPP1R11), human, residues 27-68, I63A/Y64A; also called I3_(27-68) IY; source: E. coli BL21 (DE3), purified (Ni-NTA, TEV cleavage, heat, SEC); not shown: His6, N-terminal, cleaved; MBP, N-terminal, cleaved
B5: CSC: I3_(27-68) C61S (domain or fragment, human, UniProt O60927 27-68, looked up)
chain: B1 chain with C35S
notes: as for B3
B6: CCS: I3_(27-68) C62S (domain or fragment, human, UniProt O60927 27-68, looked up)
chain: B1 chain with C36S
notes: as for B3
B7: CCS: I3_(27-68) C62S (domain or fragment, human, UniProt O60927 27-68, looked up)
chain: B1 chain with C36S
notes: PPP1R11), human, residues 27-68, C62S; source: E. coli BL21 (DE3), purified (Ni-NTA, TEV cleavage, heat, SEC); not shown: His6, N-terminal, cleaved; MBP, N-terminal, cleaved
B8: SSS: I3_(27-68) C60S/C61S/C62S (domain or fragment, human, UniProt O60927 27-68, looked up)
chain: B1 chain with C34S, C35S, C36S
notes: PPP1R11), human, residues 27-68; also called I3_(27-68)SSS; I3_(27-68) SSS; source: E. coli BL21 (DE3), purified (Ni-NTA, TEV, heat 95 °C, SEC); not shown: His6, N-terminal, cleaved; MBP, N-terminal, cleaved
B9: IY: I3_(27-68) I63A/Y64A (domain or fragment, human, UniProt O60927 27-68, looked up)
chain: B1 chain with I37A, Y38A
notes: PPP1R11), human, residues 27-68; also called I3_(27-68) IY; source: E. coli BL21 (DE3), purified (Ni-NTA, TEV, heat 95 °C, SEC); not shown: His6, N-terminal, cleaved; MBP, N-terminal, cleaved
B10: SCS: I3_(27-68) C60S/C62S (domain or fragment, human, UniProt O60927 27-68, looked up)
chain: B1 chain with C34S, C36S
notes: as for B3
B11: CSC: I3_(27-68) C61S (domain or fragment, human, UniProt O60927 27-68, looked up)
chain: B1 chain with C35S
notes: PPP1R11), human, residues 27-68, C61S; source: E. coli BL21 (DE3), purified (Ni-NTA, TEV cleavage, heat, SEC); not shown: His6, N-terminal, cleaved; MBP, N-terminal, cleaved
B12: CSS: I3_(27-68) C61S/C62S (domain or fragment, human, UniProt O60927 27-68, looked up)
chain: B1 chain with C35S, C36S
notes: as for B3
B13: SSS: I3_(27-68) C60S/C61S/C62S (domain or fragment, human, UniProt O60927 27-68, looked up)
chain: B1 chain with C34S, C35S, C36S
notes: PPP1R11), human, residues 27-68, C60S/C61S/C62S; also called I3_27-68_60SSS62; I3_(27-68) SSS; source: E. coli BL21 (DE3), purified (Ni-NTA, TEV cleavage, heat, SEC); not shown: His6, N-terminal, cleaved; MBP, N-terminal, cleaved
B14: SSC: I3_(27-68) C60S/C61S (domain or fragment, human, UniProt O60927 27-68, looked up)
chain: B1 chain with C34S, C35S
notes: PPP1R11), human, residues 27-68, C60S/C61S; also called I3_27-68_SSC; source: E. coli BL21 (DE3), purified (Ni-NTA, TEV cleavage, heat, SEC); not shown: His6, N-terminal, cleaved; MBP, N-terminal, cleaved
B15: SCC: I3_(27-68) C60S (domain or fragment, human, UniProt O60927 27-68, looked up)
chain: B1 chain with C34S
notes: as for B3
B16: CSS: I3_(27-68) C61S/C62S (domain or fragment, human, UniProt O60927 27-68, looked up)
chain: B1 chain with C35S, C36S
notes: PPP1R11), human, residues 27-68, C61S/C62S; also called I3_27-68_CSS; source: E. coli BL21 (DE3), purified (Ni-NTA, TEV cleavage, heat, SEC); not shown: His6, N-terminal, cleaved; MBP, N-terminal, cleaved
B17: CCCdeletion: I327-59 (Δ60-68) (domain or fragment, human, UniProt O60927 27-59, looked up)
chain: SLTIKLRKRKPEKKVEWTSDTVDNEHMGRRSSK
notes: also called I3 CCCdeletion; source: E. coli BL21 (DE3), purified (Ni-NTA, TEV cleavage, heat 95 °C, SEC); not shown: His6, N-terminal, cleaved; MBP, N-terminal, cleaved
B18: CCC_(deletion): I3_(27-59) (Δ60-68) (domain or fragment, human, UniProt O60927 27-59, looked up)
chain: B17 chain
notes: PPP1R11), human, residues 27-59; also called CCCdead: I327-59 (Δ60-62); I3 27-59 (CCC dead); source: E. coli BL21 (DE3), purified (Ni-NTA, TEV cleavage, heat, SEC); not shown: His6, N-terminal, cleaved; MBP, N-terminal, cleaved
B19: CCC_(deletion): I3_(27-59) (Δ60-68) (domain or fragment, human, UniProt O60927 27-59, looked up)
chain: B17 chain
notes: PPP1R11), human, residues 27-59; also called I3 CCC_(deletion) variant; I3_(27-68) CCC_(deletion); source: E. coli BL21 (DE3), purified (Ni-NTA, TEV, heat 95 °C, SEC); not shown: His6, N-terminal, cleaved; MBP, N-terminal, cleaved

Experiments:
[1] = biological target: PP1α7-330 (UniProt P62136)
PP1α7-330 (UniProt P62136), sequence (P62136 7-330): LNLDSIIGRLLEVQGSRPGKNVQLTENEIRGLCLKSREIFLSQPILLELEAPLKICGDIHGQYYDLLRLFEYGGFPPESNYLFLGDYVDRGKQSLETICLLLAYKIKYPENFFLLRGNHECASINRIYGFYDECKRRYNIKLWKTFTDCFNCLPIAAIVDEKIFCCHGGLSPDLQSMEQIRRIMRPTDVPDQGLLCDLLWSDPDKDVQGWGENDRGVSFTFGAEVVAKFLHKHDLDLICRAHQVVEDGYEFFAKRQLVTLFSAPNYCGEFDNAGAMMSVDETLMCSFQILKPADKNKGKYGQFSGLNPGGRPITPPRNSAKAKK

[2] = biological target: T1, His6-PP1α_(7-330) (UniProt P62136 7-330); assay: cell-based or functional assay
T1 sequence (P62136 7-330): as above

[3] = biological target: T2, His6-PP1α_(7-330) C273S (UniProt P62136 7-330, C273S); assay: cell-based or functional assay
T2 sequence (P62136 7-330 C273S): as the sequence (P62136 7-330) above, with C267S counted along it

[4] = biological target: T1, His6-PP1α_(7-330); assay: SPR; His6-PP1 captured on a Ni-NTA sensorchip, I3_(27-68) injected; pH = 7.0 (Table 1); two state fit; conditions: both partners purified
[5] = biological target: T1, His6-PP1α_(7-330); assay: SPR; His6-PP1 captured on a Ni-NTA sensorchip, I3_(27-68) injected; pH = 6.5 (Table 1); two state fit; pH 6.5; conditions: both partners purified
[6] = biological target: T1, His6-PP1α_(7-330); assay: SPR; His6-PP1 captured on a Ni-NTA sensorchip, I3_(27-68) injected; pH = 7.5 (Table 1); two state fit; pH 7.5; conditions: both partners purified
[7] = biological target: T1, His6-PP1α_(7-330); assay: SPR; His6-PP1 captured on a Ni-NTA sensorchip (NiHC200M), I3 variants injected; 25 °C; 20 mM Tris pH 8.0, 500 mM NaCl, 1 mM MnCl2, 0.5 mM TCEP, 0.05% Tween-20; one-to-one one state or one-to-one two state model; conditions: both partners purified
[8] = biological target: T2, His6-PP1α_(7-330) C273S; assay: as above; conditions: both partners purified
[9] = biological target: T3, His6-PP1α_(7-330) H66K (UniProt P62136 7-330, H66K); assay: as above; conditions: both partners purified
T3 construct: Protein Phosphatase 1 alpha (PP1α), residues 7-330, H66K; also called PP1 H66K; PP1_(7-330) H66K; source: bacterial expression (E. coli) as previously described, purified (Ni-NTA, SEC)
T3 sequence (P62136 7-330 H66K): as the sequence (P62136 7-330) above, with H60K counted along it

[10] = biological target: T4, His6-PP1α_(7-330) H248N (UniProt P62136 7-330, H248N); assay: as above; conditions: both partners purified
T4 construct: Protein Phosphatase 1 alpha (PP1α), residues 7-330, H248N; also called PP1_(7-330) H248N; source: bacterial expression (E. coli) as previously described, purified (Ni-NTA, SEC)
T4 sequence (P62136 7-330 H248N): as the sequence (P62136 7-330) above, with H242N counted along it

[11] = biological target: T5, PP1α_(7-330) (UniProt P62136 7-330); assay: SPR; His6-PP1 captured on Ni-NTA chip (NiHC200M), I3 variants injected; 25 °C; 20 mM Tris pH 8.0, 500 mM NaCl, 1 mM MnCl2, 0.5 mM TCEP, 0.05% Tween-20; one-to-one one state or one-to-one two state model (TraceDrawer); conditions: both partners purified
T5 construct: Protein Phosphatase 1 alpha (PP1α), residues 7-330; His6-PP1 was captured on the Ni-NTA sensor chip as the SPR ligand; Mn2+ in all buffers; also called Protein Phosphatase 1; His6-PP1; source: E. coli, purified (Ni-NTA, SEC)
T5 sequence (P62136 7-330): as the sequence (P62136 7-330) above

[12] = biological target: T1, His6-PP1α_(7-330); assay: SPR; His6-PP1 captured on a Ni-NTA sensorchip (NiHC200M), I3 variants injected; 25 °C; 20 mM Tris pH 8.0, 500 mM NaCl, 1 mM MnCl2, 0.5 mM TCEP, 0.05% Tween-20; one-to-one one state or one-to-one two state model; conditions: both partners purified; remark: listed apart in the source
[13] = biological target: T6, PP1α7-330 (UniProt P62136 7-330); assay: SPR; His6-PP1 captured on a Ni-NTA sensor chip (NiHC200M), I3 variants injected; 25 °C; 20 mM Tris pH 8.0, 500 mM NaCl, 1 mM MnCl2, 0.5 mM TCEP, 0.05% Tween-20; one-to-one one-state or one-to-one two-state fit; conditions: both partners purified
T6 construct: Protein Phosphatase 1 alpha catalytic subunit, residues 7-330; For SPR the His6-tagged PP1 was captured on a Ni-NTA chip; also called Protein Phosphatase 1; PP17-330; source: bacterial expression as previously described, purified (Ni-NTA, SEC)
T6 sequence (P62136 7-330): as above

| Binder | IC50 of PP1 inhibition (dephosphorylation of the H3pT3 peptide, released Pi) [2] | Kd [7] | Kd [11] | other results |
| --- | --- | --- | --- | --- |
| SLTIKLRKRKPEKKVEWTSDTVDNEHMGRRSSKCCCIYEKPR (domain or fragment) [I327-68 (I3 PP1 interaction domain)] |  |  |  | Supplementary Figure 5A: IC50 of PP1 inhibition by I3 27-68 (dephosphorylation of the H3pT3 peptide) in the presence of 1.3 mM DTT; I3 exchanged into buffer without 0.5 mM TCEP [1]: 70 nM |
| B1 | 75 nM | 9.3 ± 1.1 nM |  | IC50 of PP1 C273S inhibition (dephosphorylation of the H3pT3 peptide, released Pi; 1.33 mM DTT) [3]: 85 nM; Kd [4]: 16.1 ± 1.1 nM; Kd [5]: 17 ± 0.8 nM; Kd [6]: 9 ± 0.6 nM; Kd [8]: 16.1 ± 0.7 nM; Kd [9]: 5.9 ± 0.6 nM; Kd [10]: 6.6 ± 1.7 nM |
| B2 |  |  | 45.5 nM and 63.4 nM and 53.1 nM |  |
| B3 | 349 nM | 86.8 ± 3.8 nM |  | Kd [12]: 86.6 nM |
| B4 |  |  | 19 nM and 13.1 nM and 14.3 nM and 15.5 nM |  |
| B5 | 158 nM | 18.8 ± 0.9 nM |  |  |
| B6 | 171 nM | 20.6 ± 5.1 nM |  |  |
| B7 |  |  | 16.1 nM and 17.4 nM and 28.3 nM |  |
| B8 | 380 nM | 412 ± 6 nM |  |  |
| B9 |  | 15.6 ± 2.4 nM |  |  |
| B10 | 179 nM | 54 ± 9 nM |  |  |
| B11 |  |  | 20.1 nM and 18.7 nM and 17.5 nM |  |
| B12 | 153 nM | 21.2 ± 0.6 nM |  |  |
| B13 |  |  | 409 nM and 421 nM and 406 nM | koff [11]: 0.0719 s⁻¹ and 0.0774 s⁻¹ and 0.0728 s⁻¹ and 0.074 s⁻¹; kon [11]: 176000 M⁻¹ s⁻¹ and 184000 M⁻¹ s⁻¹ and 179000 M⁻¹ s⁻¹ and 180000 M⁻¹ s⁻¹ |
| B14 |  |  | 88 nM and 81.1 nM and 88.3 nM and 89.6 nM |  |
| B15 | 243 nM | 21.7 ± 3.1 nM |  |  |
| B16 |  |  | 20.7 nM and 21.6 nM |  |
| B17 |  |  |  | koff [13]: 0.0766 s⁻¹; kon [13]: 210000 M⁻¹ s⁻¹ |
| B18 |  |  | 447 nM and 329 nM and 352 nM | koff [11]: 0.0749 s⁻¹ and 0.0798 s⁻¹ and 0.0752 s⁻¹ and 0.0766 s⁻¹; kon [11]: 168000 M⁻¹ s⁻¹ and 242000 M⁻¹ s⁻¹ and 213000 M⁻¹ s⁻¹ and 208000 M⁻¹ s⁻¹ |
| B19 | 422 nM | 376 ± 47 nM |  |  |
